Patent publication US20030232420A1 (SEQUENOM, published 2003)
Ends that are not written are not given here.

B1: VQGNTDEAQEELAWKIAKMIVSDVMQQ (SEQ ID NO:2), cellulose-bound (peptide)
peptide: VQGNTDEAQEELAWKIAKMIVSDVMQQ
modifications: also: cellulose-bound
notes: also called Val variant 27-mer; V24 peptide
B2: AKB (null) (SEQ ID NO:110) VQGNTDEAQEELAWKIEKMIWSDVMQQC, rhodamine-labeled (peptide)
peptide: VQGNTDEAQEELAWKIEKMIWSDVMQQC(tetramethylrhodamine‑5‑maleimide)-NH2
notes: also called null peptide (A17E and V21W)
B3: AKB (RI), RI specific (SEQ ID NO:103) FEELAWKIAKMIWSDVFQQC, rhodamine-labeled (peptide)
peptide: FEELAWKIAKMIWSDVFQQC(tetramethylrhodamine‑5‑maleimide)-NH2
notes: also called PV-38; RIα-specific (Q9F, V21W, M25F)
B4: VQGNTDEAQEELAWKIAKMIVSDIMQQ (SEQ ID NO:1), cellulose-bound (peptide)
peptide: VQGNTDEAQEELAWKIAKMIVSDIMQQ
modifications: also: cellulose-bound
notes: also called Ile variant 27-mer; I24 peptide

Legend:
PKA-RIIα-GFP = biological target: T1, PKA-RIIα-GFP (UniProt P42212 1-238 = GFP); assay: SPOT membrane, anti-GFP detection
T1 construct: it may be the same construct as m8; also called PKA-RIIa-GFP
Method: Substitution analysis of both allelic peptides ([…]; SEQ ID NO:2 and […]; SEQ ID NO:1) was conducted. Each amino acid of the 27-mer peptide was substituted, one amino acid at a time per peptide, by any naturally occurring L- and D- amino acid. For both peptides complete L- and D- substitution analysis membranes have been screened for binding of PKA-RIα-GFP. After regeneration, the peptide arrays were incubated with PKA-RIIα-GFP. After binding, detection was carried out with an anti-GFP antibody in combination with a peroxidase-labeled secondary antibody.

[1] = biological target: T2, RIα isoform of the PKA regulatory subunit (Bos taurus (Bovine), UniProt P00514 2-380); assay: fluorescence anisotropy
T2 construct: also called R1α; PKA-RIα
T2 sequence (P00514 2-380 limits assumed): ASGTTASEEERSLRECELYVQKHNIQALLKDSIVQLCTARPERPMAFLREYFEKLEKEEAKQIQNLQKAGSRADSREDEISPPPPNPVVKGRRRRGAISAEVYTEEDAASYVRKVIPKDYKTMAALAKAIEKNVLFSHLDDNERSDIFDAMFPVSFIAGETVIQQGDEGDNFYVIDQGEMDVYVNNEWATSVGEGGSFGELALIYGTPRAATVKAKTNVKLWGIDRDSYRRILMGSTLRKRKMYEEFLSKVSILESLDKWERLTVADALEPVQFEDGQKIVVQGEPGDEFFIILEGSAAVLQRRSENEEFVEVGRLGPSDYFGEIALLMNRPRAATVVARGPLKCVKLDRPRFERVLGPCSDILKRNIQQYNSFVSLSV

Full-length murine RIIα [2] = biological target: T3, Full-length murine RIIα (murine, UniProt P12367 2-401); assay: fluorescence anisotropy, labeled peptide
T3 construct: mature; given as full-length
T3 sequence (P12367 2-401): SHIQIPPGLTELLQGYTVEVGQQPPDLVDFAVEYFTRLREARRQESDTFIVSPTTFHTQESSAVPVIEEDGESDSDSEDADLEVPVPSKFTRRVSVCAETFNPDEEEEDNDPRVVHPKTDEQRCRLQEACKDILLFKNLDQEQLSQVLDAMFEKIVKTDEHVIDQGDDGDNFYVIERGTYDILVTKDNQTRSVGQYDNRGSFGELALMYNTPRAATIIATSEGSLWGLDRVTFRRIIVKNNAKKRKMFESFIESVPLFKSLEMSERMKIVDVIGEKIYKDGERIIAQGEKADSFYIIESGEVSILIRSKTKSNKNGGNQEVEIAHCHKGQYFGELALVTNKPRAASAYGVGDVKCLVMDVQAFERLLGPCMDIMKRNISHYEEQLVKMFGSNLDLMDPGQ
Method: (§1) Binding of each fluorescently labeled peptide to the regulatory subunits was monitored using fluorescence anisotropy. RIα and RIIα were serially diluted beginning at 1 μM and 0.1 μM, respectively, into 10 mM HEPES pH 7.4, 0.15 M NaCl, 3 mM EDTA, 0.005% Surfactant P20 (Biacore) containing either 10 nM or 1 nM of fluorescently labeled peptide for RIα and RIIα, respectively. The samples were equilibrated for at least 1 hour at room temperature and fluorescence anisotropy monitored using a Fluoromax-2 (Jobin Yvon Horiba, SPEX Division, Edison, N.J.) equipped with Glan-Thompson polarizers. The rhodamine-labeled peptide was excited at 541 nm (5-10 nm bandpass) and emission monitored at 575 nm (5-10 nm bandpass). The anisotropy was calculated directly with the Fluoromax software using the following equation: […]
(§2) Several additional truncated and substituted peptides were synthesized and their affinity to RIα and RIIα evaluated using fluorescence anisotropy (see Table 8). Binding was evaluated for both RIα and RIIα0 using fluorescence anisotropy as described herein. Substituted residues are in bold Table 8. Tryptophan at a position corresponding to residue 21 of SEQ ID NO:2 is important for discriminating against binding to the RIIα subunit.

Full-length bovine RIα [3] = biological target: T4, Full-length bovine RIα (bovine, UniProt P00514 1-380); assay: fluorescence anisotropy, labeled peptide
T4 construct: mature; given as full-length
T4 sequence (P00514 whole entry): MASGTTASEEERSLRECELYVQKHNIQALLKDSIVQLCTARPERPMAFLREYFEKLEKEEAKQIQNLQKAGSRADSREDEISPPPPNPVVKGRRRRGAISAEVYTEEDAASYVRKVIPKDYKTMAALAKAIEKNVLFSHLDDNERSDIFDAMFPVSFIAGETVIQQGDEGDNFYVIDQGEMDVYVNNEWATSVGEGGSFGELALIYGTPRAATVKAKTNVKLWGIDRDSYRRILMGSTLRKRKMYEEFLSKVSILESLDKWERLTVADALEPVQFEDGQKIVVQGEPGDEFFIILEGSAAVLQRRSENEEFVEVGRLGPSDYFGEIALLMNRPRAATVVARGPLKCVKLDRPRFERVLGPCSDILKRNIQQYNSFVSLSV
Method: as §1, §2

Full-length murine RIIα [4] = biological target: T3, Full-length murine RIIα; assay: fluorescence anisotropy, labeled peptide, n = 3
Method: as §1
(§3) The binding affinities of three peptides designated RIIα-specific (A13L; SEQ ID NO:109), RIα-specific (Q9F, V21W, and M25F; SEQ ID NO:103) and null (A17E and V21W; SEQ ID NO:110) were compared with the unsubstituted peptide (FIG. 2 and Table 7) using fluorescence anisotropy. […] The null peptide bound very poorly to RIα and binding to RIIα could not be detected (FIG. 2).

Full-length bovine RIα [5] = biological target: T4, Full-length bovine RIα; assay: fluorescence anisotropy, labeled peptide, n = 3
Method: as §1, §3

Full-length bovine RIα [6] = biological target: T4, Full-length bovine RIα; assay: fluorescence anisotropy, labeled peptide with increasing full-length RIα; the concentration on the axis is that of the protein
Method: as §1, §3

Full-length murine RIIα [7] = biological target: T3, Full-length murine RIIα; assay: fluorescence anisotropy, labeled peptide with increasing full-length RIIα; the concentration on the axis is that of the protein
Method: as §1, §3

Full-length bovine RIα [8] = biological target: T4, Full-length bovine RIα; assay: fluorescence anisotropy
GFP-RIα D/D = biological target: T5, GFP-RIα D/D (bovine, UniProt P00514 1-109); assay: SPOT peptide array, anti-GFP detection
T5 construct: range 1-109; His tag cleaved with thrombin; also called dimerization/docking (D/D) domain of bovine RIα (residues 1-109) fused to GFP; not shown: green fluorescent protein (GFP)
T5 sequence (P00514 1-109): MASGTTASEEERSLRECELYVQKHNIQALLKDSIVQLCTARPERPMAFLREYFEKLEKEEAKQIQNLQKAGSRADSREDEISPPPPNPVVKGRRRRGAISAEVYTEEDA

GFP-RIIα D/D = biological target: T6, GFP-RIIα D/D (mouse, UniProt P12367 1-46); assay: SPOT peptide array, anti-GFP detection
T6 construct: range 1-46; His tag cleaved with thrombin; also called GFP-RII D/D; D/D domain of mouse RIIα (residues 1-46) fused to GFP; not shown: green fluorescent protein (GFP)
T6 sequence (P12367 1-46): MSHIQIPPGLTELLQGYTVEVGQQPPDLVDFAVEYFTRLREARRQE

Binder	fold signal intensity against PKA-RIα-GFP (PKA-RIIα-GFP) [fold]	Kd (Full-length murine RIIα [2]) [nM]	Kd (Full-length bovine RIα [3]) [nM]	Kd (Full-length murine RIIα [4]) [nM]	Kd (Full-length bovine RIα [5]) [nM]	EC50 (read off the curve) (Full-length bovine RIα [6]) [nM]	EC50 (read off the curve) (Full-length murine RIIα [7]) [nM]	also measured
B1	~10							
VQGNTDEAQEELAWKIAKMIVSDVMQQC(tetramethylrhodamine‑5‑maleimide)-NH2 (also called unsubstituted peptide) [AKB (dual), WT (SEQ ID NO:108) VQGNTDEAQEELAWKIAKMIVSDVMQQC, rhodamine-labeled]		2.2	48	2.2	48	~50	~3	fold increase in binding affinity against the Ile variant [1]: ~3 fold
B2				> 10000	998			
VQGNTDEAQEELLWKIAKMIVSDVMQQC(tetramethylrhodamine‑5‑maleimide)-NH2 (also called RIIα-specific (A13L)) [AKB (RII), RII specific (SEQ ID NO:109) VQGNTDEAQEELLWKIAKMIVSDVMQQC, rhodamine-labeled]				2.7	2490		~3	
B3		456	5.2	456	5.2	~10	~500	fold enhancement of binding against the unsubstituted peptide (Full-length bovine RIα [8]): 10 fold
B4	~10							binding result (GFP-RIα D/D): binds; binding result (GFP-RIIα D/D): binds
